Test results published in article PMC12173945, “Import mechanism of peroxisomal proteins with an N-terminal signal sequence” (Nature Cell Biology, 2025).

B1: GST-tagged wild-type yeast PEX39 (GST–PEX39) [yeast] / yeast PEX7 [yeast (S. cerevisiae)] (parent complex)
chain 1: MAAGGELSYEELLDHILNNKPIPNIVEVPNVTLDEGLASTPSLRPRPRPWEGQLQHQSHQGSLDKPNISLDIDQESLEGMTSLTRLSECYDIQSKLQINDSDNDNDDNNNDNNKGDGNDDDNNTVTANPTAR
chain 2: MLRYHMQGFSGYGVQYSPFFDNRLAVAAGSNFGLVGNGKLFILEIDRSGRIVEVNSFLTQDCLFDLAWNESHENQVLVAQGDGTLRLFDTTFKEFPIAIFKEHEREVFSCNWNLVNRQNFLSSSWDGSIKIWSPLRKQSLMTLTPRPLEITKMVDPLNAIILKKKSFTGISKNRNCVYQAQFSPHDQNLVLSCSGNSYASLFDIRLPSGKNQNNFLVHSGLEALTCDFNKYRPYVVATGGVDNAIRIWDIRMLNKNESATIKRTVPGQLHNSSCINEIPNAHGLAIRKVTWSPHHSNILMSASYDMTCRIWRDLSNDGAKETYKTNSTDATKGSIFNFTQHSEFVFGADWSLWGKPGYVASTAWDGNLFVWNGLG

Variants of: B1
Test: bead sedimentation (GST pull-down depletion) assay, SDS-PAGE with Coomassie quantification of PEX7 left in the supernatant; 1 µM yeast PEX7; varying GST-PEX39 concentrations; 1 h; 25 °C; parent: 0.6 nM

Row | screen value [nM] | Variant
1 | 610 | chain 1 Y9A, chain 1 L12A, chain 1 L13A, chain 1 I16A, chain 1 L17A
